Data from article PMC6978347.

Assays:
[1] = molecular target: polymerization-deficient p62^1–102 (D69A/D73A) (human) (UniProt Q13501); assay: ITC; VP-ITC, 25 °C, 10 mM HEPES pH 7.5, 150 mM NaCl; p62 D69A/D73A in the cell (5–20 μM), partner PB1 domain in the syringe (25–100 μM); one-site model; mean of three measurements
[2] = molecular target: p62 PB1 (Homo sapiens) (UniProt Q13501); settings: cited from earlier work

Substance	Kd [1] [nM]	Kd [2] [nM]
PKCζ^11–101 (pKCζ–PB1) (from UniProt Q05513 11-101) (domain or fragment)	8.9	–
p62 PB1 (from UniProt Q13501)	–	6
NBR1^1–85 (human NBR1–PB1) (from UniProt Q14596 1-85) (domain or fragment)	12.6	–
